Results taken from article PMC9728185.
Several values for one entry are separate records, joined by “and”; a condition that tells them apart may be missing. Equal entries are not always repeated.

Target: Glycerol dehydrogenase from Klebsiella pneumoniae (encoded by gldA, strain MGH78578) (Klebsiella pneumoniae strain MGH78578)
Test: SEC; analytical Superdex-200 10/300 GL, 20 mM Tris-HCl, 0.1 mM TCEP, 200 mM NaCl, pH 8.0, 0.5 ml/min; 200 ul of purified KpGlyDH at 4.94 mg/ml; masses from a standard curve of reference proteins; octamer and hexadecamer in equilibrium

Substance: Glycerol dehydrogenase from Klebsiella pneumoniae (encoded by gldA, strain MGH78578) (enzyme)
- stoichiometry N: 8 and 16
